# Measurements published in patent publication US20250340626A1 (INTERVET, published 2025).
# T1: canine NGF receptor TrkA ECD-canine Fc fusion protein (canine)
# T1 construct: also called cTrkA-ECD-IgG-B Fc fusion protein; canine TrkA-IgGBFc fusion protein
# T1 chain: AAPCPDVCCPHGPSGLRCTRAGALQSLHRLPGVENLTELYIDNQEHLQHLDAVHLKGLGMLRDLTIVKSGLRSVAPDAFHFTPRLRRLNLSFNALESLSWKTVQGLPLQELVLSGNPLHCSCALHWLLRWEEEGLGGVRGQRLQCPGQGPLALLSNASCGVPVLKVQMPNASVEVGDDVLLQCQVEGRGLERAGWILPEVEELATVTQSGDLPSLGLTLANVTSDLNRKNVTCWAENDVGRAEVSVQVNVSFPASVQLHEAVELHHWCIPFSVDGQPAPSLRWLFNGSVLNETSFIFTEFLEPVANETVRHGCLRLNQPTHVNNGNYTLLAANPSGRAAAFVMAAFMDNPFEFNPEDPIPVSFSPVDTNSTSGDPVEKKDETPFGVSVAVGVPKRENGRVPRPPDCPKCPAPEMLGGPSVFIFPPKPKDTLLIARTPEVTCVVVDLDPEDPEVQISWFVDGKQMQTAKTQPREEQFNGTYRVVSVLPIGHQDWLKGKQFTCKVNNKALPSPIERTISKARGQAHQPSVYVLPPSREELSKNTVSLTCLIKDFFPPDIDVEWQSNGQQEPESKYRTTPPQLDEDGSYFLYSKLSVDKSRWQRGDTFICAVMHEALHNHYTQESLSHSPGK
# B1: canine NGF (ligand)
# chain: SSSHPVFHRGEFSVCDSVSVWVGDKTTATDIKGKEVMVLGEVNINNSVFKQYFFETKCRDPTPVDSGCRGIDSKHWNSYCTTTHTFVKALTMDGKQAAWRFIRIDTACVCVLSRKAGRRA
# notes: also called canine Nerve Growth Factor; cNGF
# Experiments:
# canine NGF = target: B1; test: ELISA, canine NGF coated, anti-dog IgG Fc-HRP detection
# Protocol: The binding of chimeric and caninized antibodies to canine NGF was determined by ELISA as follows: [0132] 1. Coat 100 ng/well canine NGF in an immunoplate and incubate the plate at 4° C. overnight. [0133] 2. Wash the plate 3 times by PBS with 0.05% Tween 20 (PBST). [0134] 3. Block the plate by 0.5% BSA in PBS for 45-60 min at room temperature. [0135] 4. Wash the plate 3 times by PBST. [0136] 5. Make 3-fold dilution the antibodies in each column or row of dilution plate. [0137] 6. Transfer the diluted antibodies into each column or row of the immunoplate, and incubate the plate for 45-60 min at room temperature. [0138] 7. Wash the plate 3 times by PBST. [0139] 8. Add 1:2000 diluted horseradish peroxidase labeled anti-dog IgG Fc into each well of the plate and incubate the plate for 45-60 min at room temperature. [0140] 9. Wash the plate 3 times by PBST. [0141] 10. Add TMB Substrate into each well of the plate and incubate the plate for 10 to 15 min at room temperature for color development. [0142] 11. Add 100 μL of 1.5 M phosphoric acid into each well to stop the reaction. [0143] 12. Read the plate at 450 nm with 540 nm reference wavelength.
# human TrkA on TF-1 cells = human TrkA on TF-1 cells (human, UniProt P04629 33-796); test: cell-based or functional assay
# [1] = target: T1, canine NGF receptor TrkA ECD-canine Fc …; test: ELISA, canine NGF on canine TrkA receptor
# Sequence of human TrkA on TF-1 cells (P04629 33-796): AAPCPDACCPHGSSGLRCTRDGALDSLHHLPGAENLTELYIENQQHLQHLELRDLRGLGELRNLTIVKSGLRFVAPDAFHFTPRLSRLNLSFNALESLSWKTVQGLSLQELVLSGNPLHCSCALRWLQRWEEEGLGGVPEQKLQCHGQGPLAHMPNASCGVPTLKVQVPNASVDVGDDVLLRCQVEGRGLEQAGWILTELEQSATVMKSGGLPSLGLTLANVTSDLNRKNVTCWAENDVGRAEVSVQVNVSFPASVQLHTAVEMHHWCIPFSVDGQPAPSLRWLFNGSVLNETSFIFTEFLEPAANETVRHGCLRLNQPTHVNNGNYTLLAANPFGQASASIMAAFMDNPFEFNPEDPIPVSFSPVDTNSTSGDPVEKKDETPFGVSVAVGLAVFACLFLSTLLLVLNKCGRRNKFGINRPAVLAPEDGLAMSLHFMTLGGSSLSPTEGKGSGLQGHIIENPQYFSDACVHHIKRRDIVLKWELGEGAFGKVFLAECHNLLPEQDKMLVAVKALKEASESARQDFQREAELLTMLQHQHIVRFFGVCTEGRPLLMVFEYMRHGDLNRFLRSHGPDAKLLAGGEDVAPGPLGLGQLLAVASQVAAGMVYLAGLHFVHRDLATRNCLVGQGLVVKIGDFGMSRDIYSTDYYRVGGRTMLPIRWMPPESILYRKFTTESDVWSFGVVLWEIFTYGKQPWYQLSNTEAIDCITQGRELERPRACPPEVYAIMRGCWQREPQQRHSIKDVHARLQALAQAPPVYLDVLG
Binder,EC50 (canine NGF) [nM],TF-1 cell proliferation (CellTiter-Glo luminescence) EC50 (human TrkA on TF-1 cells) [nM],EC50 [1] [nM]
"human-canine chimeric Fasinumab (antibody, V domains shown, Human VH/VL of fasinumab fused to canine IgG-B constant regions and canine kappa constant region; also called Fas Chimeric; Fas Chim) VH: QVQLVQSGAEVKKPGASVKVSCKVSGFTLTELSIHWVRQAPGKGLEWMGGFDPEDGETIYAQKFQGRVTMTEDTSTDTAYMELTSLRSEDTAVYYCSTIGVVTNFDNWGQGTLVTVSS VL: DIQMTQSPSSLSASAGDRVTITCRASQAIRNDLGWYQQKPGKAPKRLIYAAFNLQSGVPSRFSGSGSGTEFTLTISSLQPEDLASYYCQQYNRYPWTFGQGTKVEIKR",122,–,–
"human-canine chimeric Fulranumab (antibody, V domains shown, Human VH/VL of fulranumab fused to canine IgG-B constant regions and canine kappa constant region; expressed in HEK293, Protein A purified; also called Ful Chimeric; Ful Chim) VH: EVQLVESGGGLVQPGGSLRLSCAASGFTLRSYSMNWVRQAPGKGLEWVSYISRSSHTIFYADSVKGRFTISRDNAKNSLYLQMDSLRDEDTAMYYCARVYSSGWHVSDYFDYWGQGILVTVSS VL: AIQLTQSPSSLSASVGDRVTITCRASQGISSALAWYQQKPGKAPKLLIYDASSLESGVPSRFSGSGSGTDFTLTISSLQPEDFATYYCQQFNSYPLTFGGGTKVEIKR",0.022,–,–
B1,–,28,54
